First the molecules themselves.
T1: human FcγRIIa (131R), His- and GST-tagged (human, UniProt P12318 34-217)
T1 construct: Expressed in HEK293T cells, purified by nickel chromatography; also called R131 FcγRIIa; not shown: 6xHis and GST tags of the pTT5 vector
T1 sequence (looked up): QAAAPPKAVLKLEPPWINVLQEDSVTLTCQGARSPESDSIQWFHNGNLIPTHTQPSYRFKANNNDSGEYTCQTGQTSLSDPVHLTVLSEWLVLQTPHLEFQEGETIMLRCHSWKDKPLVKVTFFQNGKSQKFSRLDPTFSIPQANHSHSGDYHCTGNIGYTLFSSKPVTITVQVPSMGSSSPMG

T2: human FcγRIIb receptor protein (R&D Systems) (human, UniProt P31994 46-217)
T2 construct: Bought protein injected over captured antibody in Biacore; also called CD32b
T2 sequence (looked up): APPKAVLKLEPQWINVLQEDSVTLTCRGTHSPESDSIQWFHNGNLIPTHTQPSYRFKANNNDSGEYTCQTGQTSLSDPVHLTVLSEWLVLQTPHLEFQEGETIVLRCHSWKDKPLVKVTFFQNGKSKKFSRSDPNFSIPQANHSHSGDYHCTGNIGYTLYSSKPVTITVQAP

T3: human FcγRIIa (131H), His- and GST-tagged (human, UniProt P12318 34-217)
T3 construct: also called H131 FcγRIIa; HIIa; not shown: 6xHis and GST tags of the pTT5 vector
T3 sequence (looked up): T1 sequence (looked up) with R134H

T4: mFcγRIIb (Mus musculus, UniProt P08101)
T4 construct: extracellular region, C-terminal His- and GST-tag; also called mouse FcγRII
T4 sequence (receptor extracellular region, looked up): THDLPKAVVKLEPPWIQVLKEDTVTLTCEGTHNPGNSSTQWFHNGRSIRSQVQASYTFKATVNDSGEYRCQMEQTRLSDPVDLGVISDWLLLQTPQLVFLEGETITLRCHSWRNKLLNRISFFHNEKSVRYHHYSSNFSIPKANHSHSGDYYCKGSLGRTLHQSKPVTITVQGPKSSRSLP

T5: mFcγRIV
T5 construct: also called mouse FcγRIV; not shown: C-terminal His and GST tags (named only on our card)
T5 chain: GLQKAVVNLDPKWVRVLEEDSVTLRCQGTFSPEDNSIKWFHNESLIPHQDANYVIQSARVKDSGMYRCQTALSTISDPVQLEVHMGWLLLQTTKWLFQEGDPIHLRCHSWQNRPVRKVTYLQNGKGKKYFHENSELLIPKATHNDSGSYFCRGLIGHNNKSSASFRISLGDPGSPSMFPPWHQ

T6: cynoFcγRIIb (Macaca fascicularis, UniProt A0A140HDP4)
T6 construct: extracellular region, C-terminal His- and GST-tag; also called cynomolgus monkey FcγRIIb
T6 sequence (receptor extracellular region): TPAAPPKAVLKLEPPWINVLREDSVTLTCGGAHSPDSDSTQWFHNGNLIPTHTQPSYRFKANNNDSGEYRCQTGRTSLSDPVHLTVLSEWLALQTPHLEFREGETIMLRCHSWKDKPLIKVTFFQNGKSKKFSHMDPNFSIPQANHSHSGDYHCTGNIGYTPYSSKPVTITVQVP

B1: A327D (antibody, human IgG1, kappa)
heavy: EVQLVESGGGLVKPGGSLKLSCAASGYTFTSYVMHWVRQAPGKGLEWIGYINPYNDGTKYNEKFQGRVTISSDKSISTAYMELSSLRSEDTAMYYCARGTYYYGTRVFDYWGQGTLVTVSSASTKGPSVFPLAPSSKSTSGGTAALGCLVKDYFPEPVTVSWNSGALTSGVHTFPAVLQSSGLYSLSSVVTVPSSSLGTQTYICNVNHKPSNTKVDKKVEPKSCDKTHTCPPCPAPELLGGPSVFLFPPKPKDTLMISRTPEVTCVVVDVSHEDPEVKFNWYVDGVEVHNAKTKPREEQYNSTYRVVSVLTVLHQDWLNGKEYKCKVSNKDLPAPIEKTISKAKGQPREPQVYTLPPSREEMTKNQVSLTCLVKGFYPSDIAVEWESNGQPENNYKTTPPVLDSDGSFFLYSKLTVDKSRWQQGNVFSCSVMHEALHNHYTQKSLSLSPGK
light: DIVMTQSPATLSLSPGERATLSCRSSKSLQNVNGNTYLYWFQQKPGQSPQLLIYRMSNLNSGVPDRFSGSGSGTEFTLTISSLEPEDFAVYYCMQHLEYPITFGAGTKLEIKRTVAAPSVFIFPPSDEQLKSGTASVVCLLNNFYPREAKVQWKVDNALQSGNSQESVTEQDSKDSTYSLSSTLTLSKADYEKHKVYACEVTHQGLSSPVTKSFNRGEC
notes: HuAM4G7 anti-CD19 IgG1 (m1) with this Fc substitution, EU index; copies: 2 + 2
B2: H268E (antibody, human IgG1, kappa)
heavy: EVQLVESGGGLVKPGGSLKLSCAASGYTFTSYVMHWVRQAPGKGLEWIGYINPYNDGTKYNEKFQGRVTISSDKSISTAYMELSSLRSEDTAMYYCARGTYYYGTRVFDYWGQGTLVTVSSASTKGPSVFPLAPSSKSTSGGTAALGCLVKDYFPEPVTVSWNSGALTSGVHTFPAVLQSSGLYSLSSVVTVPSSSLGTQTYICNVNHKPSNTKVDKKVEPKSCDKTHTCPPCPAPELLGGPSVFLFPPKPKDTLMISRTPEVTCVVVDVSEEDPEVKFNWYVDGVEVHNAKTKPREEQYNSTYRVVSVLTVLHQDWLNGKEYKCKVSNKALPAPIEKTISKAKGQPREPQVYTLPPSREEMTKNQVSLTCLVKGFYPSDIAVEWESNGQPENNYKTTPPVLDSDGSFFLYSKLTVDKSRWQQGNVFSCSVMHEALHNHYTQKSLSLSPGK
light: B1 light
notes: as for B1
B3: H268D (antibody, human IgG1, kappa)
heavy: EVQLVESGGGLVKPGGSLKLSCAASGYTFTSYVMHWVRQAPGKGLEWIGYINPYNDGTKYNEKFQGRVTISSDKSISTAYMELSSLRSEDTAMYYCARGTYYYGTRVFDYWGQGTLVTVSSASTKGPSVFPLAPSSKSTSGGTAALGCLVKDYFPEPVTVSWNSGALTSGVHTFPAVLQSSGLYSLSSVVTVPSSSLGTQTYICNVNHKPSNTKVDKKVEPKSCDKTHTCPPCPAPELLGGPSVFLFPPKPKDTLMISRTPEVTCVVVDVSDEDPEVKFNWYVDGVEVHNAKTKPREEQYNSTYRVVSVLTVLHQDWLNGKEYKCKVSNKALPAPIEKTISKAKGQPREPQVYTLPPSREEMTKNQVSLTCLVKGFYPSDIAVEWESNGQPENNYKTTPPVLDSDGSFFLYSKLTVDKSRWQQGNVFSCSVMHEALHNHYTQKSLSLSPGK
light: B1 light
notes: as for B1
B4: S239E (antibody, human IgG1, kappa)
heavy: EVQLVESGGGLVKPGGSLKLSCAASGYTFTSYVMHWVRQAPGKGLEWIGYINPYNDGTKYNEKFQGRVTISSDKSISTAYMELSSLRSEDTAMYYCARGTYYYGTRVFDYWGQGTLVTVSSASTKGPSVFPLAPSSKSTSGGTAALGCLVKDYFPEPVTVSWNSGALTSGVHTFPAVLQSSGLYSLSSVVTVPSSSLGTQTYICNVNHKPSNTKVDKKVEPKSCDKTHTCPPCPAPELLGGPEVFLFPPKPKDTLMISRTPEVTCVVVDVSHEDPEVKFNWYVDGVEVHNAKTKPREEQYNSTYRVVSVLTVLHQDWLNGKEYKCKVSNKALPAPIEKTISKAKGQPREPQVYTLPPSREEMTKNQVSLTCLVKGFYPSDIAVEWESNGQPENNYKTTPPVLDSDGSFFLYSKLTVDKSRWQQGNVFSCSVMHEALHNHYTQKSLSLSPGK
light: B1 light
notes: as for B1
B5: L235Y (antibody, human IgG1, kappa)
heavy: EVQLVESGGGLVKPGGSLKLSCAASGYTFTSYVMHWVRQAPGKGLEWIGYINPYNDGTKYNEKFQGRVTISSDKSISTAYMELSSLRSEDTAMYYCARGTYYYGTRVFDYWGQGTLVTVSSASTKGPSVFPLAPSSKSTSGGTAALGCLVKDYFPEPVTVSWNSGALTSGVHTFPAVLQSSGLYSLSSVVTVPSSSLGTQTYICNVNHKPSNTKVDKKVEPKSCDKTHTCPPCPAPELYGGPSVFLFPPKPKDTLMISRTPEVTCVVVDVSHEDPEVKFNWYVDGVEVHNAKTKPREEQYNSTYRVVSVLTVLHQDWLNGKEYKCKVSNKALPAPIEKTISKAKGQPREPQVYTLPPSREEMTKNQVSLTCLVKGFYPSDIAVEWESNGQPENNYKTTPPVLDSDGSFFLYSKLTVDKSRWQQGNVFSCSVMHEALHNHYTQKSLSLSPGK
light: B1 light
notes: as for B1
B6: V266I (antibody, human IgG1, kappa)
heavy: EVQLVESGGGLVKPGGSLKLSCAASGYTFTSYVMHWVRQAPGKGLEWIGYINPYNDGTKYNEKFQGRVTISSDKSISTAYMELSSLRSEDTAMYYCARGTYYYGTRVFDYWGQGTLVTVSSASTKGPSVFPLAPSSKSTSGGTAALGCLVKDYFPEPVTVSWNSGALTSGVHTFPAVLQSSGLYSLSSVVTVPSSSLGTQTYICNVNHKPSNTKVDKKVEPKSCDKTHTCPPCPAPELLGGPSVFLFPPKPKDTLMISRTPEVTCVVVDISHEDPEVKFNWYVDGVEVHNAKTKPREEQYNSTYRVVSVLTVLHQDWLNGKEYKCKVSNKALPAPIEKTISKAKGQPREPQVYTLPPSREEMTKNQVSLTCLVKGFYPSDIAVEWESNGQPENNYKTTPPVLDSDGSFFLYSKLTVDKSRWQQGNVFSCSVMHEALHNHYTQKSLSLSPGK
light: B1 light
notes: as for B1
B7: S239Q (antibody, human IgG1, kappa)
heavy: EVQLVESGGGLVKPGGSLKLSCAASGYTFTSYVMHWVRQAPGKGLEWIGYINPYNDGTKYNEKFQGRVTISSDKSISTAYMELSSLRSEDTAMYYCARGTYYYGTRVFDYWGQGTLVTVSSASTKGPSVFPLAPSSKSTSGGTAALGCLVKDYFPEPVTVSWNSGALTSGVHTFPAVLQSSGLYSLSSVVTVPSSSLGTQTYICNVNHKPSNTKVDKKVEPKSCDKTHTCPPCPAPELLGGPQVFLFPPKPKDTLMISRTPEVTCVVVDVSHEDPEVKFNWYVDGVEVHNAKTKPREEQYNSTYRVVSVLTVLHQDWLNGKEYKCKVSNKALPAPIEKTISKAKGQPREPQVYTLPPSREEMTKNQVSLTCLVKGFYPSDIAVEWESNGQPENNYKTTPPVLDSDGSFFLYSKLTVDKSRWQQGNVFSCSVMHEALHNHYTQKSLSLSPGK
light: B1 light
notes: as for B1
B8: S298Q (antibody, human IgG1, kappa)
heavy: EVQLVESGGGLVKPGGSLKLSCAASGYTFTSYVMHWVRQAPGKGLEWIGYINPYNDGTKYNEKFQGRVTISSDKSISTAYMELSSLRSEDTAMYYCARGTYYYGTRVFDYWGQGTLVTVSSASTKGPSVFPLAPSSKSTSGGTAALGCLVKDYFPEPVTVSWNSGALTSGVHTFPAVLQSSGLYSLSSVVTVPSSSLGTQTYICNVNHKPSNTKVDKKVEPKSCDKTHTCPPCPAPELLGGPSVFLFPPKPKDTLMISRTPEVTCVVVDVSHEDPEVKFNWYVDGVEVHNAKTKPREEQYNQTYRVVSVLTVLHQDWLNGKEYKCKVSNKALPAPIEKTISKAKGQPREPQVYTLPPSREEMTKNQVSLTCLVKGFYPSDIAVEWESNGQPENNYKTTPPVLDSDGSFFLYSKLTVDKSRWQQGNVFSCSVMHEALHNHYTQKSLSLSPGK
light: B1 light
notes: as for B1
B9: S267E/L328I (antibody, human IgG1, kappa)
heavy: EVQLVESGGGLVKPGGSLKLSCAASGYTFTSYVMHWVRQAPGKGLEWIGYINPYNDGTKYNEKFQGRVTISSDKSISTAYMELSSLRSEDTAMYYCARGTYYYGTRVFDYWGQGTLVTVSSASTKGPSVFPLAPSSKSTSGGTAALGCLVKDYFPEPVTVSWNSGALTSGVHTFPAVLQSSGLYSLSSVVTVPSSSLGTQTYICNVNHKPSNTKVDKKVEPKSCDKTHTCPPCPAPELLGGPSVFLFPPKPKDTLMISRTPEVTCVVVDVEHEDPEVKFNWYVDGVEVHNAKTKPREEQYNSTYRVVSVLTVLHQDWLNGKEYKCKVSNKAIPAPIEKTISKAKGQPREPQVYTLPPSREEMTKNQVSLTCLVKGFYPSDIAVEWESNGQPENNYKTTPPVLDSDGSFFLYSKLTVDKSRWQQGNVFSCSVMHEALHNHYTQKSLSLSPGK
light: B1 light
notes: HuAM4G7 anti-CD19 IgG1 (m1) with these Fc substitutions, EU index; copies: 2 + 2

Numbering of substitutions follows the chain as printed. Names and notes keep the numbering of the source.

T9 sequence (Q8SPW2 17-208): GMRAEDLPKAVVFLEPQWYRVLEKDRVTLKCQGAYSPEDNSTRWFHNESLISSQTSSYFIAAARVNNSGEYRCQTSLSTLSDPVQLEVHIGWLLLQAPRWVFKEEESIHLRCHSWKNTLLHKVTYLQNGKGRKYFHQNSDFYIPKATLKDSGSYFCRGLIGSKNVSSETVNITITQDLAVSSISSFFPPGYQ

The target in the first assay is T7, human FcγRI receptor protein (R&D Systems) (human, UniProt P12314 16-288).
T7 construct: also called soluble FcγRI; solFcγRI
T7 sequence (P12314 16-288 limits assumed): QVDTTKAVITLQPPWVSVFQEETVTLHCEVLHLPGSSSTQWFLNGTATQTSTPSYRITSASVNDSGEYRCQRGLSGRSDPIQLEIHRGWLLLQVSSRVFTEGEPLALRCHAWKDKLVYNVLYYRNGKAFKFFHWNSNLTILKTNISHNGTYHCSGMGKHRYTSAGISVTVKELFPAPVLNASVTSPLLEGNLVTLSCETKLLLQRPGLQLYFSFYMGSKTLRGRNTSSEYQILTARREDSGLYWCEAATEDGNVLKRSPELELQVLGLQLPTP
Put plainly: SPR. Background: SPR reads the build-up and loss of mass on a sensor chip optically.
As usually defined, the Kd is the free concentration of one partner at which half of the binding sites on the other are occupied at equilibrium, for simple one-to-one binding. A low value points to higher affinity. On to B1, for which the “Fold vs WT IgG1” value stood at 2.06 fold and the affinity, expressed as Kd, was 0.16 nM.
As to B2, the “Fold vs WT IgG1” value was found to be 2.74 fold and the dissociation constant Kd stood at 0.12 nM.
As for B3, the “Fold vs WT IgG1” value was 2.35 fold and binding was characterised by a dissociation constant (Kd) of 0.14 nM.
For B4, in that order: 1.65 fold and 0.2 nM.
Take B5: the “Fold vs WT IgG1” value amounted to 0.00232 fold and binding was characterised by a dissociation constant (Kd) of 142 nM.

For a further assay, the target named is T1, human FcγRIIa (131R), His- and …. Put plainly: SPR.
Consider B1, for which the “Fold vs WT IgG1” value turned out to be 1.6 fold and the Kd came out at 536 nM.
Regarding B6, the binding result is “no binding”.
Consider B2, for which the “Fold vs WT IgG1” value worked out at 3.19 fold and the Kd came out at 269 nM.
For B3, the “Fold vs WT IgG1” value stood at 4.19 fold and the dissociation constant (Kd) is 205 nM.
In the case of B4, the “Fold vs WT IgG1” value is 0.688 fold and the Kd is 1250 nM.
For B7, in that order: 0.853 fold and 1010 nM.
For B5, in that order: 1.28 fold and 669 nM.
Regarding B8, the binding result is “no binding”.
Regarding B9, the “Fold vs WT IgG1” value stood at 74 fold and binding was put at a Kd of 11.6 nM.

A further assay deals with T8, human FcγRIIIa (158V), His- and GST-tagged (human, UniProt P08637 17-208).
T8 construct: also called V158 FcγRIIIa; VIIIa; not shown: 6xHis and GST tags of the pTT5 vector
T8 sequence (P08637 17-208 F176V): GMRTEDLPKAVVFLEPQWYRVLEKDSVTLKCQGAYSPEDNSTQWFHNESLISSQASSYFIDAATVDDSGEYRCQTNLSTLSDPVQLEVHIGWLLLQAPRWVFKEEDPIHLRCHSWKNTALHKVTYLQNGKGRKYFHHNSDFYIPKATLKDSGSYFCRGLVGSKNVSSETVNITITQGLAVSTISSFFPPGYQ
Put plainly: SPR.
For B1, the “Fold vs WT IgG1” value was determined as 0.398 fold and binding was characterised by a dissociation constant (Kd) of 481 nM.
As for B2, the “Fold vs WT IgG1” value was determined as 2.19 fold and the Kd was determined as 87.5 nM.
Turning to B3, the “Fold vs WT IgG1” value stood at 3.08 fold and the Kd amounted to 62.2 nM.
Taken in the same sequence, the figures for B4 were 3.49 fold and 54.8 nM.
Taken in the same sequence, the figures for B5 were 0.504 fold and 380 nM.

The target of another assay is T2, human FcγRIIb receptor protein (R&D …). Put plainly: SPR.
For the molecule B1, the “Fold vs WT IgG1” value worked out at 1.33 fold and the Kd was 1100 nM.
B6: the binding result is “no binding”.
On to B2, for which the “Fold vs WT IgG1” value amounted to 2.62 fold and binding was characterised by a dissociation constant (Kd) of 560 nM.
Regarding B3, the “Fold vs WT IgG1” value came to 3.06 fold and the Kd was 480 nM.
Taken in the same sequence, the figures for B4 were 0.803 fold and 1830 nM.
Taken in the same sequence, the figures for B7 were 0.729 fold and 2010 nM.
B5: the “Fold vs WT IgG1” value is 1.05 fold and the Kd came to 1400 nM.
For the molecule B8, the binding result was “no binding”.
Take B9: the “Fold vs WT IgG1” value came out at 53.4 fold and the Kd worked out at 27.5 nM.

For the next assay, the target named is T3, human FcγRIIa (131H), His- and …. Put plainly: SPR.
Regarding B1, the “Fold vs WT IgG1” value was found to be 0.733 fold and the Kd was 882 nM.
For B2, in that order: 1.43 fold and 453 nM.
For B3, the “Fold vs WT IgG1” value was found to be 1.89 fold and the Kd was 342 nM.
Taken in the same sequence, the figures for B4 were 0.49 fold and 1320 nM.
Turning to B5, the “Fold vs WT IgG1” value is 1.35 fold and the Kd turned out to be 479 nM.

The next assay addresses T4, mFcγRIIb. Put plainly: SPR.
Take B1: the “Fold vs WT IgG1 (Kd)” value worked out at 1.86 fold and the “Fold vs WT IgG1 (off-rate)” value was 4.1 fold.
For B6, the “Fold vs WT IgG1 (off-rate)” value worked out at 1.42 fold.
On the same count and under the same terms, under B2 stands 2.44 fold.
Consider B3, for which the “Fold vs WT IgG1 (Kd)” value came to 1.11 fold and the “Fold vs WT IgG1 (off-rate)” value is 2.63 fold.
Turning to B4, the “Fold vs WT IgG1 (off-rate)” value came to 3.1 fold.
Turning to B7, the “Fold vs WT IgG1 (off-rate)” value turned out to be 1.74 fold.
Consider B5, for which the “Fold vs WT IgG1 (off-rate)” value was 1.02 fold.
Same read-out and setting: under B8 stands 1.41 fold.
Regarding B9, the “Fold vs WT IgG1 (off-rate)” value was 2.1 fold.

The next assay deals with T5, mFcγRIV. Put plainly: SPR.
Turning to B1, the “Fold vs WT IgG1 (Kd)” value was determined as 0.315 fold and the “Fold vs WT IgG1 (off-rate)” value was found to be 0.876 fold.
Consider B6, for which the “Fold vs WT IgG1 (off-rate)” value was 1.19 fold.
Same read-out and setting: next, B2: 1.42 fold.
Turning to B3, the “Fold vs WT IgG1 (Kd)” value is 0.47 fold and the “Fold vs WT IgG1 (off-rate)” value came out at 1.45 fold.
Regarding B4, the “Fold vs WT IgG1 (off-rate)” value stood at 1.93 fold.
The same measure, in the same setting: under B7 stands 0.711 fold; under B5, 0.507 fold.
Still for that read-out and setting: under B8 stands 0.291 fold; under B9, 0.588 fold.

The target of the next assay is T6, cynoFcγRIIb. Put plainly: SPR.
Consider B1, for which the “Fold vs WT IgG1 (Kd)” value is 1.16 fold and the “Fold vs WT IgG1 (off-rate)” value was 1.15 fold.
For B6, the “Fold vs WT IgG1 (off-rate)” value was 0.826 fold.
With B2, the “Fold vs WT IgG1 (off-rate)” value amounted to 2.23 fold.
Consider B3, for which the “Fold vs WT IgG1 (Kd)” value came to 1.48 fold and the “Fold vs WT IgG1 (off-rate)” value turned out to be 3.94 fold.
Turning to B4, the “Fold vs WT IgG1 (off-rate)” value was 1.25 fold.
Take B7: the “Fold vs WT IgG1 (off-rate)” value was determined as 0.401 fold.
The same measure, in the same setting: under B5 stands 0.92 fold; under B8, 0.714 fold.
Same read-out and setting: next, B9: 0.831 fold.

Another assay addresses T9, cynoFcγRIIIa (Macaca fascicularis, UniProt Q8SPW2).
T9 construct: extracellular region, C-terminal His- and GST-tag; also called cynomolgus monkey FcγRIIIa
Put plainly: SPR.
Take B1: the “Fold vs WT IgG1 (Kd)” value amounted to 0.783 fold and the “Fold vs WT IgG1 (off-rate)” value worked out at 0.515 fold.
In the case of B6, the “Fold vs WT IgG1 (off-rate)” value is 0.979 fold.
Still for that read-out and setting: under B2 stands 1.51 fold.
On to B3, for which the “Fold vs WT IgG1 (Kd)” value was determined as 4.24 fold and the “Fold vs WT IgG1 (off-rate)” value amounted to 1.65 fold.
With B4, the “Fold vs WT IgG1 (off-rate)” value is 2.26 fold.
In the case of B7, the “Fold vs WT IgG1 (off-rate)” value came out at 0.622 fold.
The same measure, in the same setting: next, B5: 0.535 fold; B8: 0.271 fold; B9: 0.437 fold.

The record behind these values is US20130315910A1 (Xencor, published 2013).
